In patent US20260137794A1, “LIGAND-DRUG CONJUGATE AND USE THEREOF” (SYSTIMMUNE, INC., priority 2022, published 2026):

Molecular target: recombinant human CD33 protein (human, UniProt P20138 18-259, limits assumed)
Experiment: ELISA, recombinant human CD33 coated on the plate, antibody as comparator

Sequence of recombinant human CD33 protein (P20138 18-259 limits assumed): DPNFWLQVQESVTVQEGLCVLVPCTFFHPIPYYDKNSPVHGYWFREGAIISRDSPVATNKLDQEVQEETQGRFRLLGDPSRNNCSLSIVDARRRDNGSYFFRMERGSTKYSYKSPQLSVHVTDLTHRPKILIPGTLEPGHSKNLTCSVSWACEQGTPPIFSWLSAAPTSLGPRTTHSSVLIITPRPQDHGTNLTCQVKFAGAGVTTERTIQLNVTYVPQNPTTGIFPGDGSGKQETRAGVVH

binding result: binds
B1: anti-CD33 antibody ANTI-CD33 (antibody, human IgG1, kappa, V domains shown)
VH: EVQLVQSGAEVKKPGSSVKVSCKASGYTITDSNIHWVRQAPGQSLEWIGYIYPYNGGTDYNQKFKNRATLTVDNPTNTAYMELSSLRSEDTAFYYCVNGNPWLAYWGQGTLVTVSS
VL: DIQLTQSPSTLSASVGDRVTITCRASESLDNYGIRFLTWFQQKPGKAPKLLMYAASNQGSGVPSRFSGSGSGTEFTLTISSLQPDDFATYYCQQTKEVPWSFGQGTKVEVKR
notes: also called ANTI-CD33 mAb; naked anti-CD33 antibody
